# In paper PMC11046469, “Leveraging a Phage-Encoded Noncanonical Amino Acid: A Novel Pathway to Potent and Selective Epigenetic Reader Protein Inhibitors” (ACS Central Science, 2024):
# Where a SMILES comes first, the peptide text is derived from it. Where no end group is shown, it is not given here. The star is where a group is joined. Oxazole(5-CO) = O=C(c1cnco1)*; Crotonyl(E) = C/C=C/C(=O)*; 2Furoyl = O=C(c1ccco1)*; Butyryl = CCCC(=O)*
# T1: ENL YEATS domain (His-ENL YEATS) (Homo sapiens, UniProt Q03111)
# T1 construct: (aa 1−148) was cloned in pET19b; made in house; host or cells: E. coli BL21(DE3pLysS)
# T1 sequence (Q03111 1-148): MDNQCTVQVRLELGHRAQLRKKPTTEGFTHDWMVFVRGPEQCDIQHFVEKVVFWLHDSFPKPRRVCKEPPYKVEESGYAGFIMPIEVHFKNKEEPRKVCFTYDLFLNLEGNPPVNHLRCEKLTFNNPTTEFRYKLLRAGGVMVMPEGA
# T2: ENL YEATS domain (His-ENL) (Homo sapiens, UniProt Q03111)
# T2 construct: (aa 1−148) was cloned in pET19b; made in house; host or cells: E. coli BL21(DE3pLysS)
# T2 sequence (Q03111 1-148): T1 sequence (Q03111 1-148)
# T3: 6xHis-tagged ENL YEATS domain, Q03111
# T3 chain: T1 sequence (Q03111 1-148)
# T4: AF9 YEATS domain (human, UniProt P42568 1-138)
# T4 chain: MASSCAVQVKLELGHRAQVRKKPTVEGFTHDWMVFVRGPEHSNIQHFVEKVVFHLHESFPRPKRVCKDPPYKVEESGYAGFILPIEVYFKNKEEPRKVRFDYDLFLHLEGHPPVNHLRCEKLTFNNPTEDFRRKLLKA
# T5: 6xHis-tagged ENL YEATS domain (human, UniProt Q03111 1-148)
# T5 chain: T1 sequence (Q03111 1-148)
# Legend:
# [1] = target: T1, ENL YEATS domain (His-ENL YEATS); experiment: AlphaScreen inhibition of ENL YEATS binding to biotinylated H3K27cr peptide; details: mean ± SD, n = 3
# Excerpt: (§1) To test the inhibition potency of the two selected peptides for the ENL YEATS domain, ENL-S1 and ENL-S2 were chemically synthesized through solid-phase peptide synthesis (SPPS) and evaluated by an AlphaScreen assay. In this assay, a biotinylated H3K27cr peptide and a 6xHis-tagged ENL YEATS domain (His-ENL YEATS) were immobilized on PerkinElmer streptavidin donor and nickel-chelating (Ni-NTA) acceptor beads, respectively. The use of a His-ENL YEATS instead of the original AviSUMO-ENL YEATS construct in the assay prevents potential false positive results derived from ligands which bind to the SUMO protein but not to the ENL YEATS domain. […] We then assessed the binding affinity of two ligands for the ENL YEATS domain using biolayer interferometry (BLI). Briefly, His-ENL was immobilized onto Ni-NTA functionalized biosensors to measure the binding kinetics of target peptides at different concentrations. […] As a small peptide directly selected from a phage display library, this level of high potency was unexpected. […] However, shorter-than-10-mer linear peptides with nanomolar binding potency have rarely been directly selected from phage display libraries. One example was S2P03, a 7-mer peptide that has a KD value as 49 ± 9 nM to bind to SIRT2.[10] This peptide contained BuK and was identified also from a BuK-containing phage display library using the active site-directed ligand selection technique. Taken together, the two examples confirmed that utilizing phage display libraries incorporated with a ncAA serving as a ligand for a protein target for active site-directed ligand selection is a successful method for identifying ultrahigh potency ligands for epigenetic proteins including both enzymes and readers. For ENL-S1 and ENL-S2, their determined kon and koff values were 6.23 ± 0.07 × 10^4 M^–1 s^–1, […] and […], 5.54 ± 0.02 × 10^–3 s^–1, respectively. Compared to ENL-S2, ENL-S1 has faster binding to the ENL YEATS domain and slower release from it, indicating its potential long-term action on the ENL YEATS inhibition. […]
# Characterization of Selected Peptide Inhibitors
# AlphaScreen Assay to Validate ENL Inhibitors:
# His-ENL, His-AF9 (aa 1-149, EpiCypher), and biotinylated H3K27cr (aa 15-33, EpiCypher) were used to assay the synthesized inhibitors. The lyophilized peptide inhibitors were dissolved in DMF […]
# and serially diluted into assay buffer (50 mM HEPES, 100 mM NaCl, 0.1% BSA, 0.05% CHAPS, pH 7.4) and incubated in the presence of 120 nM His-tagged protein at 37 °C for 30 minutes. 12.5 μL of biotinylated H3K27cr (400 nM) was aliquoted into a light gray 384-well Alphaplate (Perkin Elmer) and incubated at 37 °C. 12.5 μL of the inhibitor/protein solution was added to the H3K27cr solution, and incubated for 30 minutes at 37 °C. 25 μL of AlphaScreen histidine (nickel chelate) detection beads (Perkin Elmer) was added at 20 μg/mL each bead (streptavidin donor beads and nickel chelate acceptor beads), and the plate was incubated at 37 °C for 30 minutes. The plate was cooled to room temperature for 10 minutes, and then the beads were excited at 680 nm and the luminescence at 615 nm was read. […]
# Biolayer […]
# interferometry assays were performed in 96 well plates (GreinerBio-One, polypropylene, flat-bottom) using an Octet Red96 System (Sartorius). Wells were filled with 200 μL of assay buffer, blocking buffer (assay buffer + 0.1% BSA), protein solution, peptide solution, regeneration solution, and reload solution. For immobilization, His-tagged proteins were immobilized onto Ni-NTA sensors at 20 for 600 s. Sensors were then dipped into blocking buffer for 180 s, assay […] buffer for 300 s, peptide solution for 300 s, and back to assay buffer for 300 s. If multiple samples were tested, Ni-NTA sensors can be reconditioned in regeneration (10 mM glycine, pH 1.7) solution followed by reload solution (10 mM NiCl2) for 30 and 60 s, respectively. Measurements […]
# [2] = target: T2, ENL YEATS domain (His-ENL); experiment: Biolayer interferometry (BLI) binding to ENL YEATS; details: BLI
# Excerpt: as §1
# Biolayer Interferometry to Validate ENL Ligands:
# His-ENL, His-AF9 (aa 1-149, EpiCypher), His-GAS41 (aa 15-160, EpiCypher), and YEATS2-His (aa 200-345, EpiCypher) were reconstituted in water and diluted into assay buffer (20mM Tris, 300 mM NaCl, pH 7.9) for immobilization onto Octet Ni-NTA biosensors (Sartorius). Lyophilized peptides were dissolved in DMF and diluted to designated concentrations in assay buffer. Biolayer interferometry assays were performed in 96 well plates (GreinerBio-One, polypropylene, flat-bottom) using an Octet Red96 System (Sartorius). Wells were filled with 200 μL of assay buffer, blocking buffer (assay buffer + 0.1% BSA), protein solution, peptide solution, regeneration solution, and reload solution. For immobilization, His-tagged proteins were immobilized onto Ni-NTA sensors at 20 for 600 s. Sensors were then dipped into blocking buffer for 180 s, assay […] buffer for 300 s, peptide solution for 300 s, and back to assay buffer for 300 s. If multiple samples were tested, Ni-NTA sensors can be reconditioned in regeneration (10 mM glycine, pH 1.7) solution followed by reload solution (10 mM NiCl2) for 30 and 60 s, respectively. Measurements were carried out at 30 °C. Data were analyzed within the ForteBio Data Analysis software. Data were processed by double subtracting ligand only and protein only reference wells and aligning the data to the beginning of the association. Then, global kinetic fit was performed for all sensogram curves with a 1:1 model. Steady state KD values were reported.
# AlphaScreen Assay with Biotinylated-ENL-S1:
# The AlphaScreen assay was carried out in 384-well plates. Manual assay setup was performed in a 40 uL reaction buffer (50 mM HEPES pH 7.4, 100 mM NaCl, 0.1% bovine serum albumin, and 0.05% CHAPS). 10 µL of varying concentrations of His-ENL YEATS (0-300 nM) and 10 µL of […]
# [3] = target: T3, 6xHis-tagged ENL YEATS domain, Q03111; experiment: AlphaScreen; details: chain shown with the change; n = 3; parent: 62.6 nM
# AF9 YEATS domain [4] = target: T4, AF9 YEATS domain
# AF9 YEATS domain [5] = target: T4, AF9 YEATS domain; experiment: AlphaScreen or HTRF; competition: AF9 YEATS and its corresponding acylated histone peptide; test peptide varied; n = 3
# [6] = target: T5, 6xHis-tagged ENL YEATS domain; experiment: AlphaScreen or HTRF; competition: biotinylated H3K27cr peptide on streptavidin donor beads, His-ENL YEATS on nickel-chelating (Ni-NTA) acceptor beads; test peptide varied; n = 3
molecule,measurement,setting,value
CCCC(=O)NCCCC[C@H](NC(=O)[C@H](Cc1ccc(O)cc1)NC(=O)[C@H](C)NC(=O)[C@H](Cc1ccc(O)cc1)NC(=O)[C@@H](NC(=O)[C@H](CC(=O)O)NC(=O)[C@@H](N)Cc1ccc(O)cc1)C(C)C)C(N)=O [ENL-S1A5] (H-YDVYAYK(Butyryl)-NH2; N-terminus assumed),IC50,[1],> 2000 nM
CCCC(=O)NCCCC[C@H](NC(=O)[C@H](CCC(=O)O)NC(=O)[C@@H](NC(=O)[C@@H](NC(=O)[C@H](Cc1c[nH]c2ccccc12)NC(=O)[C@@H](N)Cc1c[nH]c2ccccc12)[C@@H](C)CC)[C@@H](C)CC)C(=O)NCC(N)=O [ENL-S2] (H-WWIIEK(Butyryl)G-NH2; N-terminus assumed),IC50,[1],1220 nM
same,Kd,[2],881 ± 9 nM
same,koff,[2],0.00554 s⁻¹
CCCC(=O)NCCCC[C@H](NC(=O)[C@H](Cc1ccc(O)cc1)NC(=O)[C@H](CS)NC(=O)[C@H](Cc1ccc(O)cc1)NC(=O)[C@H](C)NC(=O)[C@H](CC(=O)O)NC(=O)[C@@H](N)Cc1ccc(O)cc1)C(N)=O [ENLS1A3] (H-YDAYCYK(Butyryl)-NH2; N-terminus assumed),IC50,[1],> 5000 nM
ADVYCYK [ENL-S1 Y1A],IC50,[3],248 nM
YDAYCYK [ENL-S1 V3A],IC50,[3],> 5000 nM
YDVYCYK(Oxazole(5-CO)) [ENL-S1o],IC50,AF9 YEATS domain [4],231 nM
same,fold lower potency (IC50) toward AF9 YEATS than toward ENL YEATS,AF9 YEATS domain [5],23 fold
same,IC50,[6],10 nM
YDVYCYK(Crotonyl(E)) [ENL-S1c],IC50,AF9 YEATS domain [4],347 nM
same,fold lower potency (IC50) toward AF9 YEATS than toward ENL YEATS,AF9 YEATS domain [5],18 fold
YDVYAYK [ENL-S1 C5A],IC50,[3],> 2000 nM
YAVYCYK [ENL-S1 D2A],IC50,[3],52.2 nM
YDVYCYK(2Furoyl) [ENL-S1f],IC50,AF9 YEATS domain [4],168 nM
same,fold lower potency (IC50) toward AF9 YEATS than toward ENL YEATS,AF9 YEATS domain [5],7.7 fold
same,IC50,[6],22 nM
YDVACYK [ENL-S1 Y4A],IC50,[3],718 nM
